Data set [1] relates to Bone Marrow Derived Macrophages (BMDMs). The data set can be described thus: Inflammasome activation assay in bone marrow derived macrophages (cytokine ELISA). To be noted: murine BMDMs, FIG. 36. In kind it is cell-based, C57BL/6 mice. Here is the method:
Bone marrow cells were isolated from the tibias and femurs of C57BL/6 mice. To obtain bone marrow-derived dendritic cells (BMDCs), cells were cultured for 7 days at 37° C. and 5% CO2 in Iscove's modified Dulbecco's medium (IMDM) supplemented with 8% fetal calf serum (FCS), 1% penicillin/streptomycin (GE Healthcare Life Sciences, Marlborough, MA, USA), 1% glutamax (Thermo Fisher Scientific, Waltham, MA, USA) and 20 μM β-mercaptoethanol (Sigma-Aldrich, St. Louis, MO, USA) in the presence of 20 ng/mL gm-CSF (Preprotech, Rocky Hill, NJ, USA). To obtain bone marrow-derived macrophages (BMDMs), cells were cultured for 7 days in Roswell Park Memorial Institute medium (RPMI) supplemented with 10% FCS, 100 U/mL penicillin/streptomycin, 0.1 mM nonessential amino acids, 1% pyruvate and 2 mM L-glutamine (Thermo Fisher Scientific) in the presence of 20 ng/mL m-CSF (eBioscience)
For in vitro stimulation, 0.1×10^6 cells per well were added to 96-well flat-bottom plates (Greiner Bio-One, Kremsmunster, Austria). Cells were first primed with LPS (50 ng/mL) for 2 hours, after which cholesterol crystals (2 mg/mL) were added in the presence or absence of MCC950 (1 μM, Adipogen, San Diego, US) for an additional 4 hours. […]
InflaMab inhibits IL-1beta secretion in BMDMs—see FIG. 36. […] IL-1β release was measured in the supernatant by ELISA.
(In general: An ELISA detects its analyte on a solid surface through an enzyme-linked reagent.)

For data set [2], the system named is apoE−/− mice. The data set can be described thus: Atherosclerosis: collar-induced carotid artery plaque formation, morphometry. In kind it is in vivo. The text has this: Female apoE−/− mice were fed a Western-type diet, containing 0.25% cholesterol and 15% cacao butter (SDS, Sussex, UK) starting two weeks prior to surgery and throughout the experiment. After 2 weeks of diet feeding, carotid artery plaque formation was induced by perivascular collar placement in these mice as described previously (von der Thusen et al, Circulation. 2001; 103(8):1164-1170). […] Through the experiment, mice were weighed weekly and blood samples were obtained via the tail vein. Total cholesterol levels were determined in the serum using enzymatic colorimetric procedures (Roche/Hitachi, Mannheim, Germany). Precipath (Roche/Hitachi) was used as an internal standard. Fasting glucose levels were determined in mice at 2 weeks after starting the treatment with InflaMab and were measured with an Accu-Check glucometer (Roche Diagnostics, Almere, The Netherlands). For lipid profiling, serum samples pooled from 3 mice were used (n=3 samples per group) which were diluted 6 times, and fractionation of plasma lipoproteins was performed using an AKTA-FPLC. In each fraction, the total cholesterol levels were determined by incubation with cholesterol CHOD-PAP Reagent (Roche, Woerden, The Netherlands). Absorbance was measured at 492 nm.
After 4 weeks of treatment, the mice were anesthetized and in situ perfused, after which the carotid arteries were collected, frozen in OCT compound (TissueTek; Sakura Finetek, The Netherlands) and stored at −80° C. Transverse 10 μm cryosections were prepared on a Leica CM 3050S Cryostat (Leica Instruments) in a proximal direction for (immuno)histochemical analysis.
Cryosections were routinely stained with hematoxylin (Sigma-Aldrich, Zwijndrecht, The Netherlands) and eosin (Merck Diagnostica, Darmstadt, Germany). Morphometric analysis (Leica Qwin image analysis software) was performed on hematoxylin-eosin stained sections of the carotid arteries. For each carotid, lesion size was quantified every 100 μm, from the first appearance of the lesion proximal to the collar up to complete disappearance of the lesion from the artery. The number of sections analyzed ranged from 5 to 15 sections per mouse, from which average plaque size and plaque volume were calculated. The section with the largest plaque size was annotated as the plaque with maximum stenosis. For the quantification of lesion content in the carotid artery, four consecutive cross-sections containing the largest lesions were used. To determine lipid content, sections were stained with Oil-Red-O (Sigma-Aldrich). Macrophage content of the lesions was assessed using a rat monoclonal MOMA-2 antibody (Serotec, Kidlington, Oxford, UK). Collagen was visualized using a Sirius Red staining (Sigma-Aldrich). Mast cells and neutrophils were visualized by staining of cryosections with naphthol AS-D chloroacetate esterase (Sigma-Aldrich). The number of mast cells and neutrophils was assessed manually in two consecutive cross-sections containing the largest lesions. MOMA-2 and collagen positive areas were quantified by Leica Qwin image analysis software using a Leica DM-RE microscope (Leica Microsystems Inc., Wetzlar, Germany). All morphometric analyses were performed by a blinded operator (T.v.d.H.).
Atherosclerosis study: InflaMab reduces plaque size in an in vivo apoe−/− model of atherosclerosis—see FIG. 38. After 2 weeks of western type diet feeding in female apoE−/− mice, carotid artery plaque formation was induced by perivascular collar placement. […] Carotid arteries then collected for cyrosections. For each carotid, lesion size was quantitated every 80 μm, from the first appearance of the lesion proximal to the collar up to complete disappearance of the lesion from the artery.

B1: InflaMab: 210 kDa bispecific mouse antibody to IL-1R1 and NLRP3; light chain SEQ ID NO: 57, heavy chain with scFv SEQ ID NO: 59 (protein)
light: MVSSAQFLGLLLLCFQGTRCDIVMTQSPATLSVTPGDRVSLSCRASQSISDYLSWYQQRSHESPRLIIKYASQSISGIPSRFSGSGSGSDFTLSINSVEPEDVGVYYCQHGHSFPLTFGSGTKLELKRADAAPTVSIFPPSSEQLTSGGASVVCFLNNFYPKDINVKWKIDGSERQNGVLNSWTDQDSKDSTYSMSSTLTLTKDEYERHNSYTCEATHKTSTSPIVKSFNRNEC
heavy: MGWTLVFLFLLSVTAGVHSQIQLVQSGPELRKPGETVRISCKASGYPFTTAGLQWVQKMSGKGLKWIGWMNTQSEVPKYAEEFKGRIAFSLETAASTAYLQINNLKTEDTATYFCAKSVYFNWRYFDVWGAGTTVTVSSAKTTAPSVYPLAPVCGDTTGSSVTLGCLVKGYFPEPVTLTWNSGSLSSGVHTFPAVLQSDLYTLSSSVTVTSSTWPSQSITCNVAHPASSTKVDKKIEPRGPTIKPCPPCKCPAPNLLGGPSVFIFPPKIKDVLMISLSPIVTCVVVDVSEDDPDVQISWFVNNVEVHTAQTQTHREDYNSTLRVVSALPIQHQDWMSGKEFKCKVNNKDLPAPIERTISKPKGSVRAPQVYVLPPPEEEMTKKQVTLTCMVTDFMPEDIYVEWTNNGKTELNYKNTEPVLDSDGSYFMYSKLRVEKKNWVERNSYSCSVVHEGLHNHHTTKSFSRTPGKGSAGGSGGDSEVQLVESGGGLVKPGGSLKLSCAASGFTFSDYYMYWVRQTPEKRLEWVATISDGGTYTYYPDSVKGRFTISRDNAKNNLYLQMNSLKSEDTAMYYCARGWVSTMVKLLSSFPYWGQGTLVTVSAGGGGSGGGGSGGGGSQAVVTQESALTTSPGETVTLTCRSSTGAVTTSNYANWVQEKPDHLFTGLIGGTNNRAPGVPARFSGSLIGDKAALTITGAQTEDEAIYFCALWYSNYWVFGGGTKLTVLGQPK
In the case of B1, the “secretion of TNFalpha” value in data set [1] (same cells, specificity) is recorded as “no effect”. Also, the IL-1beta secretion entry in data set [1] (LPS 50 ng/ml, Inflamab 30 min, Alum 50 μg/ml 1 h, ELISA) is “dose-dependently inhibit”. Further, in data set [2] (FIG. 38, significant, versus control), the “reduction in lesion size” value is listed as −35%. Further, in data set [2] (InflaMab versus control groups), the Mouse weight entry is given as “no difference” and the “general white blood cell levels (hematology analysis)” value is listed as “no difference”. Also, the “% reduction of plaque size at site of maximal stenosis” value in data set [2] (InflammAb average versus Control IgG average) is given as 30.6164%. Also, in data set [2] (group average, 10 mice listed), the “Average plaque size, group Average” value is given as 36604 μm^2; the “Lumen size at site of maximal stenosis, Average” value came to 11415 μm^2; the “Media (size) at site of maximal stenosis, Average” value came to 40997 μm^2; the “Plaque size at site of maximal stenosis, Average” value was found to be 58881 μm^2. For the same molecule, the “total vessel area at site of maximal stenosis, Average” value in data set [2] (group average, 10 mice listed) came to 111293 μm^2. In data set [2] (in words), the “Lumen size (area of the artery still open for blood flow) compared to Control IgG” value was “almost significantly larger” and the “Total vessel area (plaque+media+lumen) compared to Control IgG” value was “not different”. Also, the “media size (size of the medial smooth muscle layer) compared to Control IgG” value in data set [2] (in words, Tables 5 and 6) is recorded as “no effect”. Further, in data set [2] (versus control, in words), the “lesion size, FIG. 38a” value is “trend towards a reduction”.

The values above are taken from patent US12264201B2, “Bispecific antibody targeting IL-1R1 and NLPR3” (University of Ulster, priority 2018, dated 2025).
